T1: 人CD20蛋白 (human CD20) (human, UniProt P11836 1-297, limits assumed)
T1 construct: its title names human CD20; also called 抗原
T1 sequence (looked up): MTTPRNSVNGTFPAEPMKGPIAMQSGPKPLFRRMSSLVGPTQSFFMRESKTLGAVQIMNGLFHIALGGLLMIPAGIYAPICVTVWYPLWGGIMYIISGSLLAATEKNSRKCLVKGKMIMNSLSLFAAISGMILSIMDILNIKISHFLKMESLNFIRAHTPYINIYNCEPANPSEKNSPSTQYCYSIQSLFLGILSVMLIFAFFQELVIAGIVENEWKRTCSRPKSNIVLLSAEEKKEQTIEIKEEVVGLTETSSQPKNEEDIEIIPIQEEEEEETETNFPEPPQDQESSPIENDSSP

B1: Rituximab (antibody, V domains shown)
VH: QVQLQQPGAELVKPGASVKMSCKASGYTFTSYNMHWVKQTPGRGLEWIGAIYPGNGDTSYNQKFKGKATLTADKSSSTAYMQLSSLTSEDSAVYYCARSTYYGGDWYFNVWGAGTTVTVSA
VL: QIVLSQSPAILSASPGEKVTMTCRASSSVSYIHWFQQKPGSSPKPWIYATSNLASGVPVRFSGSGSGTSYSLTISRVEAEDAATYYCQQWTSNPPTFGGGTKLEIK
B2: hG7B2-IgG1 (antibody, V domains shown)
VH: QVQLVQSGGEVKKPGASVKVSCKTSGYRFTSGKNAVWVRQAPGQGLEWMGGIATGKFNLSVDLQGRLTLTTDTSTSTAYMELGSLRPDDTAVYYCTRDIRLYAGDYWGQGTLVTVSS
VL: DIVLTQPASVSGSPGQSVTISCSAIDGNCFNKVSWYQQHPGKAPKLMIYDASKRCTGIPERFSGSNSGNTATLTISRVEAGDEADYYCQAASKDAPITTFGRGTKLTVL

Biological target: T1, 人CD20蛋白 (human CD20)
Experiment: SPR (CM5 chip), antibody captured by anti-human capture antibody, antigen as analyte

Row | Binder | Kd | koff | kon
1 | B1 | 5.46 nM | 0.000345 s⁻¹ | 63100 M⁻¹ s⁻¹
2 | B2 | 0.215 nM | 5.31e-05 s⁻¹ | 246000 M⁻¹ s⁻¹
